T1: His6-TRX-PfPPR1 (Plasmodium falciparum, UniProt Q8IM30 121-608)
T1 sequence: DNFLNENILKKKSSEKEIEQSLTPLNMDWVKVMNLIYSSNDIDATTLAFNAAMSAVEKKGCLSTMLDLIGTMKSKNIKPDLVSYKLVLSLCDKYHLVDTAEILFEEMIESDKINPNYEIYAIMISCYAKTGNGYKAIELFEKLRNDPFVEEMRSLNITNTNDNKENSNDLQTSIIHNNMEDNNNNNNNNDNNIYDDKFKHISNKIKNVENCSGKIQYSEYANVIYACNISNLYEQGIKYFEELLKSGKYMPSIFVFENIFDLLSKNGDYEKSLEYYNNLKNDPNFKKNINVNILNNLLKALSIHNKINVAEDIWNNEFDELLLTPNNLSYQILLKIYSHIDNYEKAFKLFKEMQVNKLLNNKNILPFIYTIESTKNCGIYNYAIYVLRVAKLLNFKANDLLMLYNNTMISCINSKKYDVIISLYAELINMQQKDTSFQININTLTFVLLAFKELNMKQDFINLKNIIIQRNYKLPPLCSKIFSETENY


Assays:
[1] = target: His6-TRX-PfPPR1 (Plasmodium falciparum apicoplast pentatricopeptide repeat protein PPR1, minus the bipartite leader, with N-terminal TRX-His6 tag) (Plasmodium falciparum); experiment: SEC; S200 10/300 analytical gel filtration column in 50 mM Tris pH 8.0, 200 mM NaCl, 5 mM DTT; sample in 10 mM HEPES pH 7.5, 20 mM KCl, 1 mM MgCl2, 1 mM DTT, 15 min at room temperature; control without RNA (with RNA 4 or RNA 5 the dimer eluted earlier, with RNA bound)
[2] = target: PfPPR1 minus the His6-TRX tag (tag cleaved by HRV 3C protease) (Plasmodium falciparum); experiment: AUC; sedimentation velocity, PfPPR1 minus His6-TRX tag at 1.8 mg/mL, continuous c(s) distribution model
His6-TRX-PfPPR1 = target: T1, His6-TRX-PfPPR1; experiment: pull-down; Pull-down: 10 mM HEPES pH 7.5, 20 mM KCl, 1 mM MgCl2, 1 mM DTT, room temperature 15 min; 400 nM biotinylated RNA, 800 nM protein (Results state 1:1 molar). Gel; details: protein: recombinant; tags: N-terminal TRX-His6 (HRV 3C cleavable); chain copies: 2; label: 3' biotin (pull-down)

Row | Molecule | binding result (His6-TRX-PfPPR1) | also measured
1 | His6-TRX-PfPPR1 (Plasmodium falciparum apicoplast pentatricopeptide repeat protein PPR1, minus the bipartite leader, with N-terminal TRX-His6 tag) (natural protein) |  | stoichiometry N [1]: 2
2 | PfPPR1 minus the His6-TRX tag (tag cleaved by HRV 3C protease) (natural protein) |  | stoichiometry N [2]: 2
3 | ACGACAUUAUAAGGUCGGA (ssRNA) [RNA oligo 2] | binds | 
4 | ACGACAUUAUAUGGUCGGA (ssRNA) [RNA oligo 1] | binds | 
5 | ACGACAUGACGAGGUCGGA (ssRNA) [RNA oligo 3] | no binding | 

— PMC6899631, “An essential pentatricopeptide repeat protein in the apicomplexan remnant chloroplast”
